EP4345113A1 (SDS Optic Spolka Akcyjna, dated 2024)
Each block holds one binder with its values, some of them ahead of it.

Experiments:
[1] = molecular target: T1, recombinant HER2 ECD domain (human, UniProt P04626 23-652); test: Western blot
T1 construct: extracellular domain; also called extracellular domain of HER2

[2] = molecular target: T2, human epidermal growth factor receptor 2 (HER2), native, in SK-BR-3 and SK-OV-3 cells and cell lysates (human, UniProt P04626 23-1255); test: immunofluorescence on fixed cells
T2 construct: whole, on cells; Detected in denatured cell lysates (Western blot) and in fixed cells (immunofluorescence); also called HER2 antigen; HER2 protein

[3] = molecular target: HER2 antigen (as used in the ELISA binding assays and on the optoelectronic biosensors) (human) (UniProt P04626); test: in vitro antigen binding curve (ELISA), half of the effective dose
[4] = molecular target: HER2 antigen (as used in the ELISA binding assays and on the optoelectronic biosensors) (human) (UniProt P04626); test: direct ELISA, lot SDS-20211201 after 430 days at -80°C; amount of antibody that binds half of the available antigen
[5] = molecular target: HER2 antigen (as used in the ELISA binding assays and on the optoelectronic biosensors) (human) (UniProt P04626); test: direct ELISA, lot SDS-20211231 after 352 days at -80°C; amount of antibody that binds half of the available antigen
[6] = molecular target: HER2 antigen (as used in the ELISA binding assays and on the optoelectronic biosensors) (human) (UniProt P04626); test: direct ELISA, lot SDS-20220120 after 341 days at -80°C; amount of antibody that binds half of the available antigen
[7] = molecular target: HER2 antigen (as used in the ELISA binding assays and on the optoelectronic biosensors) (human) (UniProt P04626); test: direct ELISA, lot SDS-20220126 after 340 days at -80°C; amount of antibody that binds half of the available antigen

- binding result [1]: binds
- binding result [2]: binds
- ED50 [3]: 0.235 nM
- ED50 [4]: 0.0046 µg
- ED50 [5]: 0.0043 µg
- ED50 [6]: 0.004 µg
- ED50 [7]: 0.0043 µg
B1: mAb anti-human-HER2/70.21.73.67 - clone 67 (antibody, V domains shown)
VH: EIQLQQSGPELVKPGASVRVSCKASGYSFTDYNMYWVRQSQGESLEWIGYIDHYNGNTGYNQKFRDKATLTVDKASSTAFMHLNSLTSEDSAVYYCARHYDYGAMDYWGQGTSVTVSS
VL: DIVMTQSQKFMSTSVGDRVSVTCKASQNVGTNVAWYQQKPGQSPKALIYSASYRYSGVPDRFTGSGSGTDFTLTISTVQSEDLAEYFCQHYYIYPLTFGAGTKLELKR
notes: Used as a biotin complex in the sandwich ELISA; No cleavage site is stated; also called mAb anti-human-HER2/clone 67; anti-HER2/70.21.73.67

- binding result [1]: binds
- binding result [2]: binds
- ED50 [3]: 0.0922 nM
B2: mAb anti-human-HER2/70.27.58 - clone 58 (antibody, V domains shown)
VH: EVQLQQSGPELEKPGASVKISCKASGYSFTGYNMNWVKQSNGKSLEWIGTIDPNYGTSYNQKFKGKATLTVDKSSSTAYMHLKSLTSEDSSVYYCARRKVNYEAWFAFWGQGTLVTVSA
VL: DIVLTQSPASLAVSLGQRATISCRASESVDSYGNSFMHWYQQKPGQPPKLLIYRASNLESGIPARFSGSGSRTDFTLTINPVEADDVATYYCQQSNEDPFTFGSGTKLEIKR
notes: also called mAb anti-human-HER2/clone 58; anti-HER2/70.27.58
